Laboratory results as given in patent publication US7098302B2, “Binding peptides specific for the extracellular domain of ErbB2 and uses therefor” (University of Vermont and State Agricultural College, priority 2001, dated 2006).

Legend:
[1] = target: T1, ErbB2 (pY1248, pY877) in SKBR3 cells (Homo sapiens, UniProt P04626); assay: ErbB2 phosphorylation, Western blot with phospho-specific ErbB2 antibodies and densitometry; assay type: cell-based
T1 construct: ErbB2 overexpressing SKBR3 cells were treated with the EC-1 free peptide; endogenous in cells; host or cells: SKBR3
Protocol: FIG. 6A is a Western blot analysis of SKBR3 cell lysates made at various times following 15 minute treatment with 25 μM EC-1 peptide. Blots were probed with pY1248 phospho ErbB2 antibody, pY877 phospho ErbB2 antibody and total ErbB2 antibody.
ErbB2 overexpressing SKBR3 cells were treated with the EC-1 free peptide to determine its effect on ErbB2 activation. When ErbB2 is activated it becomes phosphorylated on specific tyrosine residues (i.e., pY1248 and pY877). This is turn triggers downstream signal transduction events, culminating in increased cellular proliferation. Viable SKBR3 cells were treated with 25 μM EC-1 peptide for 15 minutes. At 0.5, 2, 4, 8, 22 and 48 hours thereafter, cell lysates were prepared and run on a Western blot using phospho-specific ErbB2 antibodies. […] (See FIG. 6B.) The peptide had no effect on total ErbB2 expression.

[2] = target: T2, native, intact ErbB2 extracted from the membranes of human breast cancer cells (Homo sapiens, UniProt P04626); assay: ELISA of peptide phage on solubilized membrane lysates captured with anti-ErbB2 antibody; assay type: binding
T2 construct: native, intact ErbB2 extracted from the membranes of human breast cancer cells; endogenous in cells; host or cells: BT474 and SKBR3 breast cancer cells (MCF7 as low-expression control)
Protocol: The above identified peptide phage specifically bind to native, intact ErbB2 extracted from the membranes of human breast cancer cells that overexpress ErbB2. Plates were coated with 1 μg of an antibody that binds to the intracellular domain of ErbB2, followed by 100 μl of solubilized membrane preparations from two different breast cancer cell lines that overexpress ErbB2 (BT474 and SKBR3), and probed with CB1 peptide-phage, control library phage, and 9G6 anti-ErbB2. MCF7 cells serve as a (relative) negative target control, as MCF7 breast cancer cells express only a low level of ErbB2.
Peptide phage derived from the EC-1 biases library similarly bind specifically to membrane lysates from ErbB2 expressing SKBR3 cells but not to lysates from minimally expressing MCF7 cells. (See FIG. 2B.)

“WTGW C LNPEESTWGF C TGSF (WTGWCLNPEESTWGFCTGSF) [EC-1]” was tested, and the “time for which phosphorylation of ErbB2 is inhibited after treatment” value ([1]; 25 μM EC-1) was “at least 8 hours”, the “effect on total ErbB2 expression” value ([1]; 25 μM EC-1 peptide) was “no effect” and the “inhibition of the phosphorylation of residues pY1248 and pY877 of ErbB2” value ([1]; 25 μM EC-1 peptide for 15 minutes, after 0.5 hrs) was 40%. For the same substance, the “binding to membrane lysates from ErbB2 overexpressing cells by ELISA” value ([2]; BT474 and/or SKBR3 lysates) was “binding to SKBR3” and the “binding to membrane lysates from MCF7 cells by ELISA” value ([2]; MCF7 cells express only a low level of ErbB2) was “not to MCF7”.
